What was measured:
hESC-derived EPs = assay: Growth factor treatment of hESC-derived EPs for 3 days, immunofluorescence quantification of marker-positive cells; assay type: cell-based, human
Procedure: hESC, ISL1-EGFP Hues8 and H1, were maintained under a feeder-free system on Geltrex (Invitrogen) in TeSR-E8 media (Stemcell Technologies). Cells were passaged at 70-80% confluence using TrypLE (Invitrogen). After dissociation, cells were seeded in TeSR-E8 media+10 μM Y-27632 for 24h. Differentiation was started when cells were 90% confluent. The following media and growth factors/small molecules (see also Table 3) were used: Day1: MCDB-131 media with 0.1% BSA+10 mM glucose+ActivinA and CHIR99021. Day2-3: MCDB-131 media+0.1% BSA+10 mM glucose+ActivinA. Day4-5: MCDB-131+0.1% BSA, 10 mM glucose, VitC+KGF. Day6-9: MCDB-131 2% BSA+5.5 mM glucose+Vit.C+ITS (Invitrogen)+ActivinA+KGF+RA+SANT-1+Noggin. Day10-12: MCDB-131+2% BSA+5.5 mM glucose+VitC+ITS+SANT-1+Noggin+PdBU. Day13-15: MCDB-131+2% BSA+5.5 mM glucose+VitC+ITS+Noggin+AlK5i. EPs were dissociated and seeded as 25,000 cells/well on Geltrex-coated 96-well plates in DMEM media (Invitrogen) with B27 Supplement (Thermo Fisher Scientific), later called B27 media, supplemented with 10 µM Y-27632 for 24h. Growth factors (Table 3) were added to B27 media, at two concentrations, and tested on EPs for 3 days. After 3 days, cells were PBS washed, fixed with 4% PFA/PBS for 20 min at room temperature (RT), washed twice with PBS and stained.
Cells were incubated with 5% donkey serum (Jackson ImmunoResearch Laboratories) in PBST (PBS+0.1% Triton-X) for 30 min to avoid nonspecific binding of the antibody and to permeabilize the cells. Primary antibodies, diluted in 5% donkey serum in PBST, were then added and incubated at 4° C. overnight with shaking. After primary antibody incubation, cells were washed 3 times with PBST and secondary antibodies conjugated with Alexa-Fluor Dyes (Jackson ImmunoResearch Laboratories) and diluted in 5% donkey serum in PBST were added to the cells for 30 min at RT. Then, cells were thrice washed with PBST and nuclei were stained with Dapi (Roche Diagnostics). For imaging, Leica DMI6000 or confocal Leica TCS SPE was used. Images were initially processed by LAS X software and then further analyzed and quantified using ImageJ software (NIH, W Rasband, http://rsb.info.nih.gov/ij) using cell counter plug-in. Typically, at least 5 randomly selected images were counted per condition.

[1] = test system: canonical β-catenin-dependent pathway; assay: TOPFLASH reporter assay; assay type: cell-based, human; conditions: 100 or 500 ng/ml WNT5A, 3 days
Procedure: For TOPFLASH reporter assay, 80,000 EPs were transfected with 0.5 μg of TOPFLASH (Addgene #12456) or FOPFLASH (Addgene #12457) from Dr. Randall Moon, together with 0.25 μg pRLTK using Lipofectamine 2000 (Invitrogen) for 48h. Cells were then treated with CHIR99021 (as positive control), DMSO (mock control) or WNT5A for 3 days before collecting the samples. Luciferase assay was performed using Dual luciferase assay system (Promega) which Luciferase and Renilla signal were measured by TD20/20 Luminometer (Turner designs).

B1: WNT5A: secreted growth factor from the human pancreatic niche (R&D), used at 100 or 500 ng/ml (protein)
chain: IIGAQPLCSQLAGLSQGQKKLCHLYQDHMQYIGEGAKTGIKECQYQFRHRRWNCSTVDNTSVFGRVMQIGSRETAFTYAVSAAGVVNAMSRACREGELSTCGCSRAARPKDLPRDWLWGGCGDNIDYGYRFAKEFVDARERERIHAKGSYESARILMNLHNNEAGRRTVYNLADVACKCHGVSGSCSLKTCWLQLADFRKVGDALKEKYDSAAAMRLNSRGKLVQVNSRFNSPTTQDLVYIDPSPDYCVRNESTGSLGTQGRLCNKTSEGMDGCELMCCGRGYDQFKTVQTERCHCKFHWCCYVKCKKCTEIVDQFVCK
hESC-derived EPs; 100 ng/ml of WNT5A (30% in B27)
  number of INS+ cells: 39%
hESC-derived EPs; 500 ng/ml WNT5A (30% in B27)
  number of INS+ cells: 60%
hESC-derived EPs; 3-day EP treatment, vs untreated control
  decrease in the number of GCG+ cells: 3 fold
hESC-derived EPs; 3 days treatment of EPs
  average increase in number of cells positive for all test markers: 5 fold
  numbers of ISL1-eGFP, CHGA+, INS+ and C-peptide+ cells over untreated controls (in words): increased
hESC-derived EPs; WNT5A in different combinations at 500 ng/ml, 3 days
  number of INS+ cells among all factors and combinations tested (in words): consistently and most significantly increased
hESC-derived EPs; growth factors alone or in combination
  fold increase in number of ins+ cell generate from hESCs: 6 fold
[1]
  activity of β-catenin-dependent pathway, TOPFLASH (in words): did not significantly activate or antagonize

Source: US20200138870A1, “RECREATION OF PANCREATIC NICHE ALLOWS FOR NOVEL METHODS FOR HUMAN, MATURE BETA DERIVATION FROM PLURIPOTENT STEM CELLS” (Baylor College of Medicine, priority 2016, published 2020)
